Measurements as given in patent publication US20210171647A1 (WUXI BIOLOGICS SHANGHAI, published 2021).
Where a chain is given by its changes, count along the chain named.

What was measured:
Assay in all cases: ELISA, antibody coated, OX40-ECD.His mutant supernatant; relative to silent alanine substitutions;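 further: captured OX40 mutant protein detected with HRP-labelled anti-His antibody, absorbance read-out, scaled to the mean signal of control mutants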
human OX40-ECD.His P172A = target: T1, human OX40-ECD.His P172A (human, UniProt P43489 29-214)
T1 construct: extracellular domain; not shown: C-terminal His-tag
T1 sequence (looked up): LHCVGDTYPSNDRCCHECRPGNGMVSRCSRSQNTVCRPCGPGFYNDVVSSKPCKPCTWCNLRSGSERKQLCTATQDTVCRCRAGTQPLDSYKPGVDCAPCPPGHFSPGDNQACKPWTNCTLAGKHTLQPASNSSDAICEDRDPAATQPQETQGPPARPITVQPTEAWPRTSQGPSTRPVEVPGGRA

human OX40-ECD.His V76A = target: T2, human OX40-ECD.His V76A (human, UniProt P43489 29-214)
T2 construct: extracellular domain; not shown: C-terminal His-tag
T2 sequence (looked up): T1 sequence (looked up) with V48A, A144P

human OX40-ECD.His G70A = target: T3, human OX40-ECD.His G70A (human, UniProt P43489 29-214)
T3 construct: extracellular domain; not shown: C-terminal His-tag
T3 sequence (looked up): T1 sequence (looked up) with G42A, A144P

human OX40-ECD.His V106A = target: T4, human OX40-ECD.His V106A (human, UniProt P43489 29-214)
T4 construct: extracellular domain; not shown: C-terminal His-tag
T4 sequence (looked up): T1 sequence (looked up) with V78A, A144P

human OX40-ECD.His F71A = target: T5, human OX40-ECD.His F71A (human, UniProt P43489 29-214)
T5 construct: extracellular domain; not shown: C-terminal His-tag
T5 sequence (looked up): T1 sequence (looked up) with F43A, A144P

human OX40-ECD.His S91A = target: T6, human OX40-ECD.His S91A (human, UniProt P43489 29-214)
T6 construct: extracellular domain; not shown: C-terminal His-tag
T6 sequence (looked up): T1 sequence (looked up) with S63A, A144P

human OX40-ECD.His P135A = target: T7, human OX40-ECD.His P135A (human, UniProt P43489 29-214)
T7 construct: extracellular domain; not shown: C-terminal His-tag
T7 sequence (looked up): T1 sequence (looked up) with P107A, A144P

human OX40-ECD.His P66A = target: T8, human OX40-ECD.His P66A (human, UniProt P43489 29-214)
T8 construct: extracellular domain; not shown: C-terminal His-tag
T8 sequence (looked up): T1 sequence (looked up) with P38A, A144P

human OX40-ECD.His K96A = target: T9, human OX40-ECD.His K96A (human, UniProt P43489 29-214)
T9 construct: extracellular domain; not shown: C-terminal His-tag
T9 sequence (looked up): T1 sequence (looked up) with K68A, A144P

human OX40-ECD.His R110A = target: T10, human OX40-ECD.His R110A (human, UniProt P43489 29-214)
T10 construct: extracellular domain; not shown: C-terminal His-tag
T10 sequence (looked up): T1 sequence (looked up) with R82A, A144P

Fold Change (human OX40-ECD.His P172A): 1.02
Fold Change (human OX40-ECD.His V76A): 1.02
Fold Change (human OX40-ECD.His G70A): 0.511
Fold Change (human OX40-ECD.His V106A): 0.662
Fold Change (human OX40-ECD.His F71A): 0.866
Fold Change (human OX40-ECD.His S91A): 0.886
Fold Change (human OX40-ECD.His P135A): 0.899
Fold Change (human OX40-ECD.His P66A): 0.913
Fold Change (human OX40-ECD.His K96A): 0.949
Fold Change (human OX40-ECD.His R110A): 0.955
B1: 1.134.9-u1-IgG1L (antibody, V domains shown)
VH: QVQLQESGPGLVKPSGTLSLTCAVSGGSISSYNWWSWVRQPPGKGLEWIGEIYHGGNTNYNPSLKSRVTMSVDNSKNQFSLKLSSVTAADTAVYYCARAPGDWGGSPYFDFWGQGTLVTVSS
VL: SSELTQDPAVSVALGQTVRITCQGDNLRTYYASWYQQKPGQAPILLIYGRNKRPSGIPDRFSGSSSGNTASLTITGAQAEDEAAYYCNSRDSSGNPVVFGGGTKLTVL
notes: fully human IgG1, lambda
